In article PMC10786891, “Massively parallel profiling of RNA-targeting CRISPR-Cas13d”:
Changes are numbered by the printed parent chain. In names and notes the source's numbering stands.

T1: EsCas13d, nuclease-dead (Eubacterium siraeum, UniProt B0MS50, R295A;H300A;R849A;H854A)
T1 sequence: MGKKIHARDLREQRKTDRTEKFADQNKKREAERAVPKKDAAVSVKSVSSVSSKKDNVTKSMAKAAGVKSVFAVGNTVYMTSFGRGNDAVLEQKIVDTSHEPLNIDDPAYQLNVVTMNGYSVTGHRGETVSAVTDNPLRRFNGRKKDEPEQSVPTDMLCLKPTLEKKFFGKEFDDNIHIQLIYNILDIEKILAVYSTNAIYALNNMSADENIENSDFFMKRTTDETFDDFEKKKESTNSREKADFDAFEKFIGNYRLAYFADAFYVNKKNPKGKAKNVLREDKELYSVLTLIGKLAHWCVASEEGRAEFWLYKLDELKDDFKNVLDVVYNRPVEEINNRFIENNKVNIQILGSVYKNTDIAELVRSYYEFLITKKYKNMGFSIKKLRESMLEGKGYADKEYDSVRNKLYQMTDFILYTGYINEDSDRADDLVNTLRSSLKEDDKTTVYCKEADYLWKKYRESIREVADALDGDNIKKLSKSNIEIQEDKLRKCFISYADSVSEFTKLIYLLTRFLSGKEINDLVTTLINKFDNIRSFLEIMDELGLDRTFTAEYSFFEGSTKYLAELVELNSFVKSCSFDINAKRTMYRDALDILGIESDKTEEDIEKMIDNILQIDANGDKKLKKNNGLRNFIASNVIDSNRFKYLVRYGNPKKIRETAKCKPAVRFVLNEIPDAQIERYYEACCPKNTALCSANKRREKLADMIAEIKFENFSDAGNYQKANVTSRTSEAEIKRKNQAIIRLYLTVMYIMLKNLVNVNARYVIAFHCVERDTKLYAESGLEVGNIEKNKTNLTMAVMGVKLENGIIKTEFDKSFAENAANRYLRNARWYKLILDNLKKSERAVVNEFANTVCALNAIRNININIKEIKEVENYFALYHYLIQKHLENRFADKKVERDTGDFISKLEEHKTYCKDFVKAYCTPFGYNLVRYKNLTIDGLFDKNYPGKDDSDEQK

B1: target 1 insA 3' of 4 (mixed)
RNA 1: CACCCGUGCAAAAAUGCAGGGGUCUAAAACUGAGCGGAUAACCUCUCUAUGG
RNA 2: GGGAAUGGAUCCACAUCUACGAAUUCGUACCAUAGAGAGGUUAUCCGCAUCACCGAGAUCGGAAGAGCACACGU
B2: target 1 insU 3' of 18,insA 3' of 5 (mixed)
RNA 1: B1 RNA 1
RNA 2: GGGAAUGGAUCCACAUCUACGAAUUCGUACCAUAUGAGAGGUUAUCCGACUCACCGAGAUCGGAAGAGCACACGU
B3: target 1 insU 3' of 17,insG 3' of 3 (mixed)
RNA 1: B1 RNA 1
RNA 2: B2 RNA 2 with U35G, G36U, A49C, C50U, U51G
B4: target 1 C4A,A18G (mixed)
RNA 1: B1 RNA 1
RNA 2: GGGAAUGGAUCCACAUCUACGAAUUCGUACCAUGGAGAGGUUAUCCGAUCACCGAGAUCGGAAGAGCACACGU
B5: target 1 A18U,C21A (mixed)
RNA 1: B1 RNA 1
RNA 2: B4 RNA 2 with C31A, G34U, A48C
B6: target 1 C6U,G17A (mixed)
RNA 1: B1 RNA 1
RNA 2: B4 RNA 2 with G34A, G35A, C46U, A48C
B7: target 1 G5A,G13A (mixed)
RNA 1: B1 RNA 1
RNA 2: B4 RNA 2 with G34A, G39A, G47A, A48C
B8: target 1 insA 3' of 6,insU 3' of 1 (mixed)
RNA 1: B1 RNA 1
RNA 2: GGGAAUGGAUCCACAUCUACGAAUUCGUACCAUAGAGAGGUUAUCCAGCUCAUCCGAGAUCGGAAGAGCACACGU
B9: target 1 G12U,C22G (mixed)
RNA 1: B1 RNA 1
RNA 2: B4 RNA 2 with C30G, G34A, G40U, A48C
B10: target 1 insC 3' of 22 (mixed)
RNA 1: B1 RNA 1
RNA 2: GGGAAUGGAUCCACAUCUACGAAUUCGUACCCAUAGAGAGGUUAUCCGCUCACCGAGAUCGGAAGAGCACACGU
B11: target 1 U3G,U8C (mixed)
RNA 1: B1 RNA 1
RNA 2: B4 RNA 2 with G34A, U44C, A48C, U49G
B12: target 1 G12A,G13C (mixed)
RNA 1: B1 RNA 1
RNA 2: B4 RNA 2 with G34A, G39C, G40A, A48C
B13: target 1 U8C,G13A (mixed)
RNA 1: B1 RNA 1
RNA 2: B4 RNA 2 with G34A, G39A, U44C, A48C
B14: target 1 del9,del20 (mixed)
RNA 1: B1 RNA 1
RNA 2: GGGAAUGGAUCCACAUCUACGAAUUCGUACCUAGAGAGGUUUCCGCUCACCGAGAUCGGAAGAGCACACGU
B15: target 1 insA 3' of 22,insU 3' of 12 (mixed)
RNA 1: B1 RNA 1
RNA 2: GGGAAUGGAUCCACAUCUACGAAUUCGUACACAUAGAGAGGUUUAUCCGCUCACCGAGAUCGGAAGAGCACACGU
B16: target 1 complement block 1-3 (mixed)
RNA 1: B1 RNA 1
RNA 2: B4 RNA 2 with G34A, A48C, U49A, C50G, A51U
B17: target 1 insA 3' of 6,insA 3' of 2 (mixed)
RNA 1: B1 RNA 1
RNA 2: B8 RNA 2 with U53A
B18: target 1 insA 3' of 8,insC 3' of 3 (mixed)
RNA 1: B1 RNA 1
RNA 2: B8 RNA 2 with C45A, A47C, A52C, U53A
B19: target 1 U3C,U10C (mixed)
RNA 1: B1 RNA 1
RNA 2: B4 RNA 2 with G34A, U42C, A48C, U49C
B20: target 1 G12A,C21U (mixed)
RNA 1: B1 RNA 1
RNA 2: B4 RNA 2 with C31U, G34A, G40A, A48C
B21: target 1 insU 3' of 22,insC 3' of 15 (mixed)
RNA 1: B1 RNA 1
RNA 2: B15 RNA 2 with A31U, A39C, G40A, U42G
B22: target 1 insC 3' of 20,insU 3' of 12 (mixed)
RNA 1: B1 RNA 1
RNA 2: B15 RNA 2 with A31C, C32A, A33C
B23: target 1 insA 3' of 6,insG 3' of 1 (mixed)
RNA 1: B1 RNA 1
RNA 2: B8 RNA 2 with U53G
B24: target 1 C2G,U3A (mixed)
RNA 1: B1 RNA 1
RNA 2: B4 RNA 2 with G34A, A48C, U49A, C50G
B25: target 1 insG 3' of 6,insU 3' of 1 (mixed)
RNA 1: B1 RNA 1
RNA 2: B8 RNA 2 with A47G
B26: target 1 U3G,C6A (mixed)
RNA 1: B1 RNA 1
RNA 2: B4 RNA 2 with G34A, C46A, A48C, U49G
B27: target 1 del6,del7 (mixed)
RNA 1: B1 RNA 1
RNA 2: GGGAAUGGAUCCACAUCUACGAAUUCGUACCAUAGAGAGGUUAUGCUCACCGAGAUCGGAAGAGCACACGU
B28: target 1 insG 3' of 16,insU 3' of 4 (mixed)
RNA 1: B1 RNA 1
RNA 2: B2 RNA 2 with U35G, G36A, A37G, A49C, C50U
B29: target 1 insG 3' of 8,insU 3' of 4 (mixed)
RNA 1: B1 RNA 1
RNA 2: B8 RNA 2 with C45G, A47C, C51U, A52C, U53A
B30: target 1 insC 3' of 10,insA 3' of 4 (mixed)
RNA 1: B1 RNA 1
RNA 2: B8 RNA 2 with A43C, U44A, C45U, A47C, U50A, C51U, A52C, U53A
B31: target 1 insU 3' of 5,insG 3' of 2 (mixed)
RNA 1: B1 RNA 1
RNA 2: B8 RNA 2 with A47G, G48U, A52G, U53A
B32: target 1 insA 3' of 11,insA 3' of 3 (mixed)
RNA 1: B1 RNA 1
RNA 2: B8 RNA 2 with U42A, A43U, U44A, C45U, A47C, C51A, A52C, U53A
B33: target 1 C6U,A14G (mixed)
RNA 1: B1 RNA 1
RNA 2: B4 RNA 2 with G34A, A38G, C46U, A48C
B34: target 1 insC 3' of 15,insC 3' of 8 (mixed)
RNA 1: B1 RNA 1
RNA 2: B2 RNA 2 with U35G, G36A, A37G, G38C, G48C, A49G

Biological target: T1, EsCas13d, nuclease-dead
Test: crRNA (strand 1, pre-loaded); Mg2+; 40 mM Tris-HCl pH 7.5, 150 mM NaCl, 6 mM MgCl2, 1 mM DTT, 0.1% Tween-20, 0.2 mg/ml BSA; 25 C; 10 min per concentration, then washed
Conditions: tags: His6-TwinStrep-SUMO cleaved; N-terminal SNAP kept (SNAP-Surface 488); label: 3' end held by stalled T7 RNA polymerase

Binder	Kd [nM]
B1	8.5 ± 1.1
B2	23.7 ± 2.6
B3	23.4 ± 2.7
B4	68 ± 16
B5	56 ± 6
B6	42 ± 4
B7	34 ± 7
B8	25 ± 5
B9	42 ± 6
B10	14.7 ± 0.9
B11	7.2 ± 0.33
B12	~90
B13	61 ± 12
B14	52 ± 7
B15	11.5 ± 1.1
B16	7 ± 0.5
B17	18.7 ± 1.3

Binder	Kd [nM]
B18	15.8 ± 0.6
B19	51 ± 9
B20	7.8 ± 0.5
B21	67 ± 14
B22	6.19 ± 0.32
B23	16 ± 1.2
B24	13.4 ± 1.3
B25	17.8 ± 2.3
B26	6.3 ± 0.4
B27	11.4 ± 0.7
B28	13.9 ± 0.6
B29	9.44 ± 0.34
B30	15.5 ± 2.6
B31	9.1 ± 0.5
B32	14 ± 0.7
B33	14.2 ± 0.7
B34	26.2 ± 2.8
